Assay results reported in IntAct's records for PubMed 16775625.

B1: Cyclin-dependent kinase 14 (Homo sapiens), O94921 (parent)
chain: MCDLIEPQPAEKIGKMKKLRRTLSESFSRIALKKDDTTFDEICVTKMSTRNCQGMDSVIKPLDTIPEDKKVRVQRTQSTFDPFEKPANQVKRVHSENNACINFKTSSTGKESPKVRRHSSPSSPTSPKFGKADSYEKLEKLGEGSYATVYKGKSKVNGKLVALKVIRLQEEEGTPFTAIREASLLKGLKHANIVLLHDIIHTKETLTLVFEYVHTDLCQYMDKHPGGLHPDNVKLFLFQLLRGLSYIHQRYILHRDLKPQNLLISDTGELKLADFGLARAKSVPSHTYSNEVVTLWYRPPDVLLGSTEYSTCLDMWGVGCIFVEMIQGVAAFPGMKDIQDQLERIFLVLGTPNEDTWPGVHSLPHFKPERFTLYSSKNLRQAWNKLSYVNHAEDLASKLLQCSPKNRLSAQAALSHEYFSDLPPRLWELTDMSSIFTVPNVRLQPEAGESMRAFGKNNSYGKSLSNSKH
partner: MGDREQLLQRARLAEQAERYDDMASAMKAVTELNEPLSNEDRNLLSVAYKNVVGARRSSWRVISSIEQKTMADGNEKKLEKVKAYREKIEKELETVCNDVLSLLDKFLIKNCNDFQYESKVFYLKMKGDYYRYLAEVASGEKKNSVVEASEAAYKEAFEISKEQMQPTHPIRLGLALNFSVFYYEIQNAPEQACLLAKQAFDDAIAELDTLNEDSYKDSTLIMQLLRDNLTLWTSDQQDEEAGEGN
B2: Cyclin-dependent kinase 14 (Homo sapiens), O94921 (parent)
chain: B1 chain
B3: Cyclin-dependent kinase 14 (Homo sapiens), O94921 (parent)
chain: B1 chain
partner: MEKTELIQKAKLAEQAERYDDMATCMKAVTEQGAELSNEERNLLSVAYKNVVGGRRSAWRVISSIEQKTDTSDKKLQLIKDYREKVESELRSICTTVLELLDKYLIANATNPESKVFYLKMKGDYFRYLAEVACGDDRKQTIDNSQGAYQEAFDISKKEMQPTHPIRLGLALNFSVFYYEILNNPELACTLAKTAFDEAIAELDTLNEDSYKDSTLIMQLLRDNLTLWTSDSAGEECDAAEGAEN

Variants of: B1
Conditions: with 1433f_human YWHAH

effect of a mutation on the interaction	Variant
decreasing interaction	MCDLIEPQPAEKIGKMKKLRRTLSESFSRIALKKDDTTFDEICVTKMSTRNCQGMDSVIKPLDTIPEDKKVRVQRTQSTFDPFEKPANQVKRVHSENNACINFKTSSTGKESPKVRRHASPSSPTSPKFGKADSYEKLEKLGEGSYATVYKGKSKVNGKLVALKVIRLQEEEGTPFTAIREASLLKGLKHANIVLLHDIIHTKETLTLVFEYVHTDLCQYMDKHPGGLHPDNVKLFLFQLLRGLSYIHQRYILHRDLKPQNLLISDTGELKLADFGLARAKSVPSHTYSNEVVTLWYRPPDVLLGSTEYSTCLDMWGVGCIFVEMIQGVAAFPGMKDIQDQLERIFLVLGTPNEDTWPGVHSLPHFKPERFTLYSSKNLRQAWNKLSYVNHAEDLASKLLQCSPKNRLSAQAALSHEYFSDLPPRLWELTDMSSIFTVPNVRLQPEAGESMRAFGKNNSYGKSLSNSKH [S119A]

Variants of: B2
Conditions: with 1433b_human YWHAB

effect of a mutation on the interaction	Variant
decreasing interaction	MCDLIEPQPAEKIGKMKKLRRTLSESFSRIALKKDDTTFDEICVTKMSTRNCQGMDSVIKPLDTIPEDKKVRVQRTQSTFDPFEKPANQVKRVHSENNACINFKTSSTGKESPKVRRHASPSSPTSPKFGKADSYEKLEKLGEGSYATVYKGKSKVNGKLVALKVIRLQEEEGTPFTAIREASLLKGLKHANIVLLHDIIHTKETLTLVFEYVHTDLCQYMDKHPGGLHPDNVKLFLFQLLRGLSYIHQRYILHRDLKPQNLLISDTGELKLADFGLARAKSVPSHTYSNEVVTLWYRPPDVLLGSTEYSTCLDMWGVGCIFVEMIQGVAAFPGMKDIQDQLERIFLVLGTPNEDTWPGVHSLPHFKPERFTLYSSKNLRQAWNKLSYVNHAEDLASKLLQCSPKNRLSAQAALSHEYFSDLPPRLWELTDMSSIFTVPNVRLQPEAGESMRAFGKNNSYGKSLSNSKH [S119A]

Variants of: B2
Conditions: with 1433e_human YWHAE

effect of a mutation on the interaction	Variant
decreasing interaction	MCDLIEPQPAEKIGKMKKLRRTLSESFSRIALKKDDTTFDEICVTKMSTRNCQGMDSVIKPLDTIPEDKKVRVQRTQSTFDPFEKPANQVKRVHSENNACINFKTSSTGKESPKVRRHASPSSPTSPKFGKADSYEKLEKLGEGSYATVYKGKSKVNGKLVALKVIRLQEEEGTPFTAIREASLLKGLKHANIVLLHDIIHTKETLTLVFEYVHTDLCQYMDKHPGGLHPDNVKLFLFQLLRGLSYIHQRYILHRDLKPQNLLISDTGELKLADFGLARAKSVPSHTYSNEVVTLWYRPPDVLLGSTEYSTCLDMWGVGCIFVEMIQGVAAFPGMKDIQDQLERIFLVLGTPNEDTWPGVHSLPHFKPERFTLYSSKNLRQAWNKLSYVNHAEDLASKLLQCSPKNRLSAQAALSHEYFSDLPPRLWELTDMSSIFTVPNVRLQPEAGESMRAFGKNNSYGKSLSNSKH [S119A]

Variants of: B3
Conditions: with 1433t_human YWHAQ

effect of a mutation on the interaction	Variant
decreasing interaction	MCDLIEPQPAEKIGKMKKLRRTLSESFSRIALKKDDTTFDEICVTKMSTRNCQGMDSVIKPLDTIPEDKKVRVQRTQSTFDPFEKPANQVKRVHSENNACINFKTSSTGKESPKVRRHASPSSPTSPKFGKADSYEKLEKLGEGSYATVYKGKSKVNGKLVALKVIRLQEEEGTPFTAIREASLLKGLKHANIVLLHDIIHTKETLTLVFEYVHTDLCQYMDKHPGGLHPDNVKLFLFQLLRGLSYIHQRYILHRDLKPQNLLISDTGELKLADFGLARAKSVPSHTYSNEVVTLWYRPPDVLLGSTEYSTCLDMWGVGCIFVEMIQGVAAFPGMKDIQDQLERIFLVLGTPNEDTWPGVHSLPHFKPERFTLYSSKNLRQAWNKLSYVNHAEDLASKLLQCSPKNRLSAQAALSHEYFSDLPPRLWELTDMSSIFTVPNVRLQPEAGESMRAFGKNNSYGKSLSNSKH [S119A]
